Measured values as given in IntAct's records for PubMed 24937458.

B1: Lysine-specific demethylase 5B (Homo sapiens), Q9UGL1 (parent)
chain: MEAATTLHPGPRPALPLGGPGPLGEFLPPPECPVFEPSWEEFADPFAFIHKIRPIAEQTGICKVRPPPDWQPPFACDVDKLHFTPRIQRLNELEAQTRVKLNFLDQIAKYWELQGSTLKIPHVERKILDLFQLNKLVAEEGGFAVVCKDRKWTKIATKMGFAPGKAVGSHIRGHYERILNPYNLFLSGDSLRCLQKPNLTTDTKDKEYKPHDIPQRQSVQPSETCPPARRAKRMRAEAMNIKIEPEETTEARTHNLRRRMGCPTPKCENEKEMKSSIKQEPIERKDYIVENEKEKPKSRSKKATNAVDLYVCLLCGSGNDEDRLLLCDGCDDSYHTFCLIPPLHDVPKGDWRCPKCLAQECSKPQEAFGFEQAARDYTLRTFGEMADAFKSDYFNMPVHMVPTELVEKEFWRLVSTIEEDVTVEYGADIASKEFGSGFPVRDGKIKLSPEEEEYLDSGWNLNNMPVMEQSVLAHITADICGMKLPWLYVGMCFSSFCWHIEDHWSYSINYLHWGEPKTWYGVPGYAAEQLENVMKKLAPELFVSQPDLLHQLVTIMNPNTLMTHEVPVYRTNQCAGEFVITFPRAYHSGFNQGFNFAEAVNFCTVDWLPLGRQCVEHYRLLHRYCVFSHDEMICKMASKADVLDVVVASTVQKDMAIMIEDEKALRETVRKLGVIDSERMDFELLPDDERQCVKCKTTCFMSAISCSCKPGLLVCLHHVKELCSCPPYKYKLRYRYTLDDLYPMMNALKLRAESYNEWALNVNEALEAKINKKKSLVSFKALIEESEMKKFPDNDLLRHLRLVTQDAEKCASVAQQLLNGKRQTRYRSGGGKSQNQLTVNELRQFVTQLYALPCVLSQTPLLKDLLNRVEDFQQHSQKLLSEETPSAAELQDLLDVSFEFDVELPQLAEMRIRLEQARWLEEVQQACLDPSSLTLDDMRRLIDLGVGLAPYSAVEKAMARLQELLTVSEHWDDKAKSLLKARPRHSLNSLATAVKEIEEIPAYLPNGAALKDSVQRARDWLQDVEGLQAGGRVPVLDTLIELVTRGRSIPVHLNSLPRLETLVAEVQAWKECAVNTFLTENSPYSLLEVLCPRCDIGLLGLKRKQRKLKEPLPNGKKKSTKLESLSDLERALTESKETASAMATLGEARLREMEALQSLRLANEGKLLSPLQDVDIKICLCQKAPAAPMIQCELCRDAFHTSCVAVPSISQGLRIWLCPHCRRSEKPPLEKILPLLASLQRIRVRLPEGDALRYMIERTVNWQHRAQQLLSSGNLKFVQDRVGSGLLYSRWQASAGQVSDTNKVSQPPGTTSFSLPDDWDNRTSYLHSPFSTGRSCIPLHGVSPEVNELLMEAQLLQVSLPEIQELYQTLLAKPSPAQQTDRSSPVRPSSEKNDCCRGKRDGINSLERKLKRRLEREGLSSERWERVKKMRTPKKKKIKLSHPKDMNNFKLERERSYELVRSAETHSLPSDTSYSEQEDSEDEDAICPAVSCLQPEGDEVDWVQCDGSCNQWFHQVCVGVSPEMAEKEDYICVRCTVKDAPSRK
partner: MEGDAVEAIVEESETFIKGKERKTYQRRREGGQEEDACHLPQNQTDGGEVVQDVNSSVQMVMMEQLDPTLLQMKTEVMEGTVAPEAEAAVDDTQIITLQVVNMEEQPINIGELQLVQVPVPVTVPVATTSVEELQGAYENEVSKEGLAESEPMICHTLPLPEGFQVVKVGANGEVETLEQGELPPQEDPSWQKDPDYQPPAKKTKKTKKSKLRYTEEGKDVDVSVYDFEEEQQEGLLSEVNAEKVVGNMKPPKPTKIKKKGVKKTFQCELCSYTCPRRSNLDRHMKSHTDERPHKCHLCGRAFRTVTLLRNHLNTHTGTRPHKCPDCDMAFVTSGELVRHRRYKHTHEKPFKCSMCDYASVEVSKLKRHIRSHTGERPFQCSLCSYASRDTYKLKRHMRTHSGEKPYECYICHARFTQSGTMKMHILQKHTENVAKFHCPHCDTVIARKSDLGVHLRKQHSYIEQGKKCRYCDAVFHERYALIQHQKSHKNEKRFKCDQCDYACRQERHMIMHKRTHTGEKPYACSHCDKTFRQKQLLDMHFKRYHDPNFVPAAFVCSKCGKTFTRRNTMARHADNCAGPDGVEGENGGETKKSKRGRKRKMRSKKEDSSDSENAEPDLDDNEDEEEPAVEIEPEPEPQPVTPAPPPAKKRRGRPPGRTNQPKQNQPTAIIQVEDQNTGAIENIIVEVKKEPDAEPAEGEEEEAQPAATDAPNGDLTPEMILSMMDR

Variants of: B1
Details: with ctcf_human CTCF

Variant | effect of a mutation on the interaction
K1435R | decreasing interaction strength
